Test results published in patent US9579358B2, “Compositions for binding to amyloid proteins” (LANCASTER UNIVERSITY BUSINESS ENTERPRISES LIMITED, priority 2011, dated 2017).
Non-standard residues stand in square brackets, D forms with d. Residues, ends and D or L forms follow the SMILES beside them. No end group written: not given here.

Key:
[1] = molecular target: T1, Aβ42 (Homo sapiens, UniProt P05067); experiment: Sandwich immunoassay (6E10) for Aβ oligomers; format: biochemical; details: 2:1 and 1:1 molar ratios of inhibitor:Aβ42; from 4 and 8 h
T1 construct: Recombinant Aβ42, Ultrapure, was purchased from rPeptide, Bogart, Ga., USA; purchased rPeptide, Bogart, Ga., USA
Procedure: These inhibitors were also tested in an immunoassay technique for the detection of early-stage Aβ oligomers. This assay uses monoclonal anti-Aβ antibody 6E10 to capture Aβ from solution and a biotinylated form of 6E10 as the detection antibody, in a sandwich system. Monomeric Aβ has only a single 6E10 epitope, which is occupied by the capture antibody, and so it cannot subsequently bind to the detection antibody. On the other hand, multimeric Aβ has binding sites available for both capture and detection, giving rise to a strong immunoassay signal. In Aβ aggregation time-course experiments, this assay produces a signal before the ThT method, when only small oligomers are present.
The sandwich immunoassay used follows the method described previously by Taylor et al (28, 30). Briefly, 96-well ELISA plates (Maxisorb) were coated with mouse monoclonal antibody 6E10 diluted 1:1000 in assay buffer (Tris-buffered saline (TBS), pH 7.4, containing 0.05% gamma globulins and 0.005% Tween 20). […] Enhancer solution was added and the plates were read using the time-resolved fluorescence setting for europium on a Wallac Victor 2 plate reader.
This is a more sensitive test than the ThT assay for the detection of early oligomeric forms of Aβ [28]. […] Enhancer solution was added and the plates were read on a Wallac Victor 2 plate reader, using the time-resolved fluorescence setting for europium.

[2] = system: SHSY-5Y cells; experiment: MTT cell viability assay, toxicity of PINPs alone; format: cell-based; details: 10 μM PINPs, 24 hours
Procedure: SHSY 5Y cells were grown and maintained in DMEM (Dulbecco's Modified Eagle Medium) supplemented with FBS under standard mammalian cell culture conditions. During treatment cells were kept in Optimem plus or minus peptide liposomes in 96 well plates at 20000 cells per well for 24 hours, again under standard culture conditions. For cell protection assays 5 μM of pre-aggregated Aβ1-42 was added at the same time as peptide liposomes. Cell viability was assessed for four wells for each treatment using a Promega CellTiter assay kit.

[3] = molecular target: T1, Aβ42; experiment: Sandwich immunoassay (6E10) for Aβ oligomers; format: biochemical; details: Aβ1-42 12.5 μM

T1 sequence (P05067 672-713 limits assumed): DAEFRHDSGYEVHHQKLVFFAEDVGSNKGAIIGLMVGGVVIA

Molecule: CC(=O)N[C@H](CCCNC(=N)N)C(=O)NCC(=O)N[C@H](Cc1ccccc1)C(=O)N[C@H](Cc1ccccc1)C(=O)N[C@@H](C(=O)N[C@H](CC(C)C)C(=O)N[C@H](CCCCN)C(=O)NCC(=O)N[C@H](CCCNC(=N)N)C(=O)N[C@H](CCCNC(=N)N)C(=O)N[C@H](CCCNC(=N)N)C(=O)N[C@H](CCCNC(=N)N)C(=O)N[C@H](CCC(N)=O)C(=O)N[C@H](CCCNC(=N)N)C(=O)N[C@H](CCCNC(=N)N)C(=O)N[C@H](CCCCN)C(=O)N[C@H](CCCCN)C(=O)N[C@H](CCCNC(=N)N)C(=O)NCC(=O)N[C@H](Cc1ccc(O)cc1)C(N)=O)C(C)C [RI-OR2-TAT, Ac-rGffvlkGrrrrqrrkkrGy-NH2] (Ac-[dR]G[dF][dF][dV][dL][dK]G[dR][dR][dR][dR][dQ][dR][dR][dK][dK][dR]G[dY]-NH2)
- development of immunoassay signal (oligomer formation) [1]: considerably reduced

Molecule: PINPs: RI-OR2-TAT covalently attached to nanoliposomes (cholesterol:sphingomyelin [1:1] with 2.5% maleimide) via an additional cysteine (Ac-[dR]G[dF][dF][dV][dL][dK]G[dR][dR][dR][dR][dQ][dR][dR][dK][dK][dR]G[dY][dC]; not fully specified (residue 21); also: C-terminal D-Cys coupled via its thiol to maleimide lipid of nanoliposome)
- toxicity to cells [2]: not toxic to cells
- Absorbance units (560 nm) ([2]; untreated cells 3.608, lysed cells 0.654): 3.610 Absorbance units
- inhibition of oligomer formation ([3]; 1:100 molar ratio of PINPS (total lipids):Aβ): still substantial
- immunoassay signal (time-resolved fluorescence, europium) ([3]; PINPs 1:1, 0 hours): 9494 relative fluorescence units
- immunoassay signal (time-resolved fluorescence, europium) ([3]; PINPs 1:1, 2 hours): 17524 relative fluorescence units
- immunoassay signal (time-resolved fluorescence, europium) ([3]; PINPs 1:1, 4 hours): 62958 relative fluorescence units
- immunoassay signal (time-resolved fluorescence, europium) ([3]; PINPs 1:1, 8 hours): 116308 relative fluorescence units
- immunoassay signal (time-resolved fluorescence, europium) ([3]; PINPs 1:1, 24 hours): 178685 relative fluorescence units
- immunoassay signal (time-resolved fluorescence, europium) ([3]; PINPs 1:1, 48 hours): 122098 relative fluorescence units
- immunoassay signal (time-resolved fluorescence, europium) ([3]; PINPs 1:10, 0 hours): 9666 relative fluorescence units
- immunoassay signal (time-resolved fluorescence, europium) ([3]; PINPs 1:10, 2 hours): 33960 relative fluorescence units
- immunoassay signal (time-resolved fluorescence, europium) ([3]; PINPs 1:10, 4 hours): 63899 relative fluorescence units
- immunoassay signal (time-resolved fluorescence, europium) ([3]; PINPs 1:10, 8 hours): 77883 relative fluorescence units
- immunoassay signal (time-resolved fluorescence, europium) ([3]; PINPs 1:10, 24 hours): 95760 relative fluorescence units
- immunoassay signal (time-resolved fluorescence, europium) ([3]; PINPs 1:10, 48 hours): 198806 relative fluorescence units
- immunoassay signal (time-resolved fluorescence, europium) ([3]; PINPs 1:50, 0 hours): 7833 relative fluorescence units
- immunoassay signal (time-resolved fluorescence, europium) ([3]; PINPs 1:50, 2 hours): 124190 relative fluorescence units
- immunoassay signal (time-resolved fluorescence, europium) ([3]; PINPs 1:50, 4 hours): 111776 relative fluorescence units
- immunoassay signal (time-resolved fluorescence, europium) ([3]; PINPs 1:50, 8 hours): 177380 relative fluorescence units
- immunoassay signal (time-resolved fluorescence, europium) ([3]; PINPs 1:50, 24 hours): 173198 relative fluorescence units
- immunoassay signal (time-resolved fluorescence, europium) ([3]; PINPs 1:50, 48 hours): 99592 relative fluorescence units
- immunoassay signal (time-resolved fluorescence, europium) ([3]; PINPs 1:100, 0 hours): 3766 relative fluorescence units
- immunoassay signal (time-resolved fluorescence, europium) ([3]; PINPs 1:100, 2 hours): 78306 relative fluorescence units
- immunoassay signal (time-resolved fluorescence, europium) ([3]; PINPs 1:100, 4 hours): 82278 relative fluorescence units
- immunoassay signal (time-resolved fluorescence, europium) ([3]; PINPs 1:100, 8 hours): 141932 relative fluorescence units
- immunoassay signal (time-resolved fluorescence, europium) ([3]; PINPs 1:100, 24 hours): 154889 relative fluorescence units
- immunoassay signal (time-resolved fluorescence, europium) ([3]; PINPs 1:100, 48 hours): 131004 relative fluorescence units
